T1: rabbit KLB (+N-ter FLAG) (rabbit)
T1 construct: expressed from KLB cDNA on HEK293T cells and read by FACS
T1 chain: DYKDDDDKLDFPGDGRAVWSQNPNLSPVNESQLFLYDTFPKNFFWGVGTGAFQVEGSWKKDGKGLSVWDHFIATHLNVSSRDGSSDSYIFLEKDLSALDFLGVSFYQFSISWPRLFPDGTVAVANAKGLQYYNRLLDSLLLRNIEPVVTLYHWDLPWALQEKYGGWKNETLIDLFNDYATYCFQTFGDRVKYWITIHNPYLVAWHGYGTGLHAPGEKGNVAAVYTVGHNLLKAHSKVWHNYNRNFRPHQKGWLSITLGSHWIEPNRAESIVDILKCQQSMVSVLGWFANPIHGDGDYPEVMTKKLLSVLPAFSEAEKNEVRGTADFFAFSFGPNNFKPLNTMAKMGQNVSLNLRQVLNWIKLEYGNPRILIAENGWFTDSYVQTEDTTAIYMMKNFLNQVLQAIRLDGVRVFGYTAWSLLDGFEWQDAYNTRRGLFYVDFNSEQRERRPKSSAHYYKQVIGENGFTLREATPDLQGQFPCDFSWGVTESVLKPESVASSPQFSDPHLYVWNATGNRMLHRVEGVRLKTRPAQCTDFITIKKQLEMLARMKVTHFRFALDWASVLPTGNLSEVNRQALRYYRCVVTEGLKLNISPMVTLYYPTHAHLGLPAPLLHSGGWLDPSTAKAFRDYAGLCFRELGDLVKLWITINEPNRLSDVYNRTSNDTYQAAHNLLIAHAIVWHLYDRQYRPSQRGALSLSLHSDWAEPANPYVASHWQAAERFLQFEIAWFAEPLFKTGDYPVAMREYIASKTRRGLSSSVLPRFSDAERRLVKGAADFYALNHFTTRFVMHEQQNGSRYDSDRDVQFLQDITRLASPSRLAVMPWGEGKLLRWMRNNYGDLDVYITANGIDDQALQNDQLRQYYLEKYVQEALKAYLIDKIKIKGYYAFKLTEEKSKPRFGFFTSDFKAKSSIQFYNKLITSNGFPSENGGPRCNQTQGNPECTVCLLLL

T2: cynomolgus monkey KLB (+N-ter FLAG) (cynomolgus monkey, UniProt Q86Z14 53-991 (human entry))
T2 construct: expressed from KLB cDNA on HEK293T cells and read by FACS; also called Cyno KLB
T2 chain: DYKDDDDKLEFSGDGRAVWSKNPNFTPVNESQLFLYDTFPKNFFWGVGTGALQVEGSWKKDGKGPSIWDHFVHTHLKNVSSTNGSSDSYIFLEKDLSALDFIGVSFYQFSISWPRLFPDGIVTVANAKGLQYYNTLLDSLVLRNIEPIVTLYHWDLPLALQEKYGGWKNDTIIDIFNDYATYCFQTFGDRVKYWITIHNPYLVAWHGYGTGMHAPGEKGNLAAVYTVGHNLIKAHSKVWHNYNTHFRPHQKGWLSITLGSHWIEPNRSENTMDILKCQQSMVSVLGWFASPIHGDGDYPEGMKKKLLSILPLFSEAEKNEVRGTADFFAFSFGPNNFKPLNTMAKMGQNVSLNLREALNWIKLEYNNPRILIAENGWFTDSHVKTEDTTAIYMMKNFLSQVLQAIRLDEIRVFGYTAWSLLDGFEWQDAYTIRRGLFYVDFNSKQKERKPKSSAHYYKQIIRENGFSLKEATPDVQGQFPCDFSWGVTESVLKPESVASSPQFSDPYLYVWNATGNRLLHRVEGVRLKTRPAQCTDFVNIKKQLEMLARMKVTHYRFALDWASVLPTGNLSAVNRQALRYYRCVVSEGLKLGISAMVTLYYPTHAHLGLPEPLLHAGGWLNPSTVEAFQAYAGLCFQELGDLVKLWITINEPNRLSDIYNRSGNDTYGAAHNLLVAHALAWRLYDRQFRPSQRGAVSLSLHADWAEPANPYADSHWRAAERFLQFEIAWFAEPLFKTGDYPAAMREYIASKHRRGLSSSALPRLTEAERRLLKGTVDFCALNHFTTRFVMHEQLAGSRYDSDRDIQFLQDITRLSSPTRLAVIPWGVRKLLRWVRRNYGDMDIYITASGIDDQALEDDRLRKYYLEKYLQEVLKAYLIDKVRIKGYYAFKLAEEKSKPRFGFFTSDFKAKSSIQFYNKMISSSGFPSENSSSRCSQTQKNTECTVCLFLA


Assays:
rabbit KLB (+N-ter FLAG) = molecular target: T1, rabbit KLB (+N-ter FLAG); assay: FACS on transfected HEK293T cells
Procedure: (§1) Species cross reactivity of the disclosed anti-KLB antibodies were analyzed by FACS analysis using KLB cDNA from mouse, rat, rabbit, cynomolgus monkey and rhesus monkey cloned into pRK mammalian expression vectors transiently transfected into HEK293T cells. The KLB extracellular domain polypeptide sequences that were expressed are as follows: […]

[1] = molecular target: T2, cynomolgus monkey KLB (+N-ter FLAG); assay: FACS on transfected HEK293T cells
Procedure: as §1

[2] = molecular target: T3, human KLB expressed on cells (human, UniProt Q86Z14 53-1044); assay: FACS on cells expressing hKLB, hKLA and chimeras; domain of hKLB recognized
T3 construct: on transfected 293 / HEK293 cells; also called hKLB; beta-Klotho

hKLB-ECD-HIS protein = molecular target: T4, hKLB-ECD-HIS protein (human, UniProt Q86Z14 53-996); assay: ELISA on hKLB-ECD-HIS protein, chimeric IgG (murine variable, hIgG1 constant regions), OD450
T4 construct: recombinant hKLB-ECD-HIS protein (R&D Systems); also called recombinant KLB-ECD protein; not shown: HIS tag
Excerpt: In addition, some of the antibodies were ranked by ELISA. For these experiments, anti-KLB antibodies that were chimeric recombinant IgG with murine variable regions and hIgG1 constant regions were used to measure binding to hKLB-ECD-HIS protein.

binding result (rabbit KLB (+N-ter FLAG))	binding result [1]	binding result [2]	binding result (hKLB-ECD-HIS protein)	Binder
binds	no binding	binds	–	46C3 (antibody, V domains shown, murine hybridoma-derived anti-KLB antibody) VH: EVQLQQSGAELVKPGASVKLSCTASDFNIIDTYIHWVKQRPEQGLEWIGRIDPANGNTKYDPKFQDKAALTSDTDSNTAYLLFNSLTSEDTAVYYCARGTSYSWFAYWGQGTLVSVSA VL: AVLMTQTPLSLPVSLGDQASISCRSSQNIVHSDGNTYLEWYLQKPGQSPKLLIYKVSNRFSGVPDRFSGSGSGRDFTLKISRVEAGDLGVYYCFQGSHVLTFGAGTRLELK
binds	binds	binds	binds	14E6 (antibody, V domains shown, murine hybridoma-derived anti-KLB antibody) VH: EVPLQQSGPELVKPGATVKISCKPSGDTFTEYTMNWVRQSHGKSLEWIGGINPNNGETSYNQKFKGKATLTVDKSSSTAFMDLRILTSEDSAVYFCARKTTNYWGQGTTLIVSS VL: DIQMTQSPSSLSASLGERVSLTCRASQEISGYLSWLQQKPDGTIKRLIYAASTLDSGVPRRFSGSRSGSDYSLTISSLESEDFADYYCLQYGSYPWTFGGGTKLELK
binds	binds	binds	–	21H3 (antibody, V domains shown, murine hybridoma-derived anti-KLB antibody) VH: QVQLQQPGAEIVKPGASVRLSCKASGYSFTSYWIHWVKQRPGQGLEWIGEIDPSVSNSNYNQKFKGKATLTADKSSSTAYMQLSGLTSEDSAVYFCVRLGVMVYGSSPFWFAYWGQGTLVTVSA VL: DIVMTQSQKFMSTSVGDRVSITCKASQFVSDAVAWYQQKPGQSPKLLICSASYRYTGVPDRFTGSGSGTDFTFTISSVRTEDLAVYYCQQHYIVPYTFGGGTTLEIE
no binding	binds	binds	binds	11F1 (antibody, V domains shown, murine hybridoma-derived anti-KLB antibody) VH: EVQLVESGGGLVKPGGSLKLSCAPSGFTFSSYGISWVRQTPEKRLEWVATVSSGGRYTYYPDSVKGRFTISRDNAENTLYLQMSSLRSEDTAMYYCTRGGDGYALDYWGQGTSVTVSS VL: DIQMTQTTSSLSASLGDRVTIICSASQVISNYLNWYQQKPDGTVKLLIYFTSSLRSGVPSRFSGSGSGTDYSLTISNLEPEDVATYFCQQYSKLPWTFGGGTKLELK
